For 7 molecules, Kd results are on record in publication PMC11488661 (Science immunology, 2024).

Substitutions are numbered along the chain they refer to.

Broadly, the Kd is the constant that tells how readily two partners part at equilibrium.

B1: GT8-D36-6_CLK19 (antibody, V domains shown)
VH: QVQLVQSGAEVKKPGASVKVSCKASEYTFTGYYMHWVRQAPGQGLEWMGWINPNSGGTNYVQKFQDRVTMTRDTSINTAYMELSRLRSDDTAVYYCTPVLAYYRWRFDYWGQGTLVTVSS
VL: not shown
B2: GT8-D36-3_CLK09 (antibody, V domains shown)
VH: QVQLVQSGAEVKKPGASVKVSCKASGYTFTGYYMHWVRQAPGQGLEWMGWINPNSGGTNFAQKFQGRVTMTRDTSINTAYMELSRLRSDDSAVFYCARVESKIFDIWGQGTMVTVSS
VL: DIQMTQSPSSLSASVGDRVTITCQTSQDISNYLNWYQQKPGKAPKLLIYDASNLETGVPSRFSGSGSGTDFTFTISSLQPEDIATYYCQQYEFFGGGTKVEIK
B3: GT8-D36-5_CLK09 (antibody, V domains shown)
VH: not shown
VL: B2 VL
B4: GT8-D36-4_CLK09 (antibody, V domains shown)
VH: not shown
VL: B2 VL with M4L, T25A, N31S, Y32S, P40T, L46V
B5: GT8-D36-22_CLK21 (antibody, V domains shown)
VH: not shown
VL: DIQMTQSPSTLSASVGDRVTITCRASQSISSWLAWYQQKPGKAPKLLIYKASSLESGVPSRFSGSGSGTEFTLTISSLQPDDFATYYCQQYDTFGGGTRVEIK
B6: GT8-D36-8_CLK19 (antibody, V domains shown)
VH: QVQLVQSGAEVKMPGASVKVSCKASGYTFTGYYMHWVRQAPGQGLEWMGWINPNSGGTNYAQKFQGRVTMTRDTSISTAYMALNSLRSDDAAVYYCAIVLADYRWRFNYWGQGTLVTVSS
VL: not shown
B7: CLK21 germline (GL) mAb (antibody, V domains shown)
VH: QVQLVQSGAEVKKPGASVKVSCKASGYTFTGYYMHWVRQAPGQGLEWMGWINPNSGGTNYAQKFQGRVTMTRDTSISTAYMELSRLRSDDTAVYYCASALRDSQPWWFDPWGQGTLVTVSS
VL: B5 VL with D92G, R99K

In one assay the target is eOD-GT8 (monomeric ligand) (Human immunodeficiency virus 1, …).
Experiment: not given
Details: not given
B1 registered a Kd of 2.03 nM.
Take B2: binding was characterised by a dissociation constant (Kd) of 0.13 nM.
B3 came in with a Kd of 1.28 nM. This Kd lies about 9.8-fold higher than the previous one.
As to B4, the affinity, expressed as Kd, was 0.0423 nM.
With B5, the Kd amounted to 2.94 nM. Against the preceding molecule, the Kd is about 70-fold higher.
In turn, B6 displayed a Kd of 0.411 nM.

A further assay deals with T1, eOD-GT8 (monomeric ligand) (Human immunodeficiency virus 1, …).
T1 construct: also called eOD-GT8 ligand; GT8-prime ligand
Nature of the assay: SPR; Carterra LSA; kinetics and affinity of antibody–antigen interactions, methods as in Cottrell et al. (ref. 56); who was immobilised is not told (the antigens are called ligands); values for groups are geometric means over the mAbs. As to conditions: both partners purified.
Take B7: the dissociation constant (Kd) was 440 nM.
